“And” between values parts separate entries of the source, which are not always exact repeats. Equal entries are not always repeated.
Experiments:
[1] = target: recombinant von Willebrand Factor A1 domain (amino acids 1277-1453 of human vWF) (human) (UniProt P04275); assay: fluorescence anisotropy; particle-bound dimeric polypeptide titrated against 150 nM vWF A1-AlexaFluor 488
[2] = target: recombinant von Willebrand Factor A1 domain (amino acids 1277-1453 of human vWF) (human) (UniProt P04275); assay: SPR (Biacore); vWF A1 domain on CM5 chip, soluble polypeptide; Kd from on- and off-rates; SPR (Biacore), vWF A1 domain on CM5 chip
[3] = target: T1, human von Willebrand Factor of human blood plasma (human, UniProt P04275 764-2813); assay: sandwich ELISA: polypeptide captured on anti-CD42b, plasma added, detection with polyclonal rabbit anti-human vWF-HRP
T1 construct: mature; Native plasma protein in ELISA samples; also called vWF; plasma vWF
Description: FIG. 4A is a cartoon of the enzyme-linked immunosorbent assay (ELISA) used to generate the data in FIG. 4B-4D. A solid support was coated with anti-glycoprotein Ibα antibody (anti-CD42b), which was used to immobilize recombinant polypeptide comprising a modified extracellular domain of platelet glycoprotein Ibα (CD42b; GPIbα; GP1b constructs). The solid support was then contacted with human blood plasma, von Willebrand Factor calibrators, or von Willebrand Factor controls. The solid support was then contacted with a polyclonal rabbit anti-human von Willebrand Factor antibody to which horseradish peroxidase (HRP) was conjugated. The composition was then contacted with a substrate capable of being converted into a product by HRP with a strong absorbance at 450 nm, and absorbance was measured.
Enzyme immunosorbent assays (ELISA) were used to determine that recombinant polypeptides comprising the G233T (SEQ ID NO: 21), D235V (SEQ ID NO: 30), and K237V (SEQ ID NO: 31) mutations are capable of detecting qualitative differences in vWF binding affinity. […] Briefly, the wells of a multi-well plate were coated with an anti-CD42b antibody, which specifically binds the modified extracellular domain of GPIbα of the recombinant polypeptides and was used to indirectly cross-link the recombinant polypeptides to the multi-well plate (i.e., the solid support). Various control samples, standards, and serial dilutions thereof were added to different wells of the multi-well plate including plasma samples associated with type 1, type 2B, and type 3 von Willebrand Disease, control samples of pooled human blood plasma, control samples of human blood plasma known not to have von Willebrand Disease, a 2× serial dilution of a reference standard of pooled human plasma from no dilution to 16-fold dilution, and goat blood serum as a negative control. […] Bound vWF was quantified by monitoring the conversion of a horseradish peroxidase substrate into product by absorption spectroscopy at 450 nm.

T1 sequence (P04275 764-2813 limits assumed): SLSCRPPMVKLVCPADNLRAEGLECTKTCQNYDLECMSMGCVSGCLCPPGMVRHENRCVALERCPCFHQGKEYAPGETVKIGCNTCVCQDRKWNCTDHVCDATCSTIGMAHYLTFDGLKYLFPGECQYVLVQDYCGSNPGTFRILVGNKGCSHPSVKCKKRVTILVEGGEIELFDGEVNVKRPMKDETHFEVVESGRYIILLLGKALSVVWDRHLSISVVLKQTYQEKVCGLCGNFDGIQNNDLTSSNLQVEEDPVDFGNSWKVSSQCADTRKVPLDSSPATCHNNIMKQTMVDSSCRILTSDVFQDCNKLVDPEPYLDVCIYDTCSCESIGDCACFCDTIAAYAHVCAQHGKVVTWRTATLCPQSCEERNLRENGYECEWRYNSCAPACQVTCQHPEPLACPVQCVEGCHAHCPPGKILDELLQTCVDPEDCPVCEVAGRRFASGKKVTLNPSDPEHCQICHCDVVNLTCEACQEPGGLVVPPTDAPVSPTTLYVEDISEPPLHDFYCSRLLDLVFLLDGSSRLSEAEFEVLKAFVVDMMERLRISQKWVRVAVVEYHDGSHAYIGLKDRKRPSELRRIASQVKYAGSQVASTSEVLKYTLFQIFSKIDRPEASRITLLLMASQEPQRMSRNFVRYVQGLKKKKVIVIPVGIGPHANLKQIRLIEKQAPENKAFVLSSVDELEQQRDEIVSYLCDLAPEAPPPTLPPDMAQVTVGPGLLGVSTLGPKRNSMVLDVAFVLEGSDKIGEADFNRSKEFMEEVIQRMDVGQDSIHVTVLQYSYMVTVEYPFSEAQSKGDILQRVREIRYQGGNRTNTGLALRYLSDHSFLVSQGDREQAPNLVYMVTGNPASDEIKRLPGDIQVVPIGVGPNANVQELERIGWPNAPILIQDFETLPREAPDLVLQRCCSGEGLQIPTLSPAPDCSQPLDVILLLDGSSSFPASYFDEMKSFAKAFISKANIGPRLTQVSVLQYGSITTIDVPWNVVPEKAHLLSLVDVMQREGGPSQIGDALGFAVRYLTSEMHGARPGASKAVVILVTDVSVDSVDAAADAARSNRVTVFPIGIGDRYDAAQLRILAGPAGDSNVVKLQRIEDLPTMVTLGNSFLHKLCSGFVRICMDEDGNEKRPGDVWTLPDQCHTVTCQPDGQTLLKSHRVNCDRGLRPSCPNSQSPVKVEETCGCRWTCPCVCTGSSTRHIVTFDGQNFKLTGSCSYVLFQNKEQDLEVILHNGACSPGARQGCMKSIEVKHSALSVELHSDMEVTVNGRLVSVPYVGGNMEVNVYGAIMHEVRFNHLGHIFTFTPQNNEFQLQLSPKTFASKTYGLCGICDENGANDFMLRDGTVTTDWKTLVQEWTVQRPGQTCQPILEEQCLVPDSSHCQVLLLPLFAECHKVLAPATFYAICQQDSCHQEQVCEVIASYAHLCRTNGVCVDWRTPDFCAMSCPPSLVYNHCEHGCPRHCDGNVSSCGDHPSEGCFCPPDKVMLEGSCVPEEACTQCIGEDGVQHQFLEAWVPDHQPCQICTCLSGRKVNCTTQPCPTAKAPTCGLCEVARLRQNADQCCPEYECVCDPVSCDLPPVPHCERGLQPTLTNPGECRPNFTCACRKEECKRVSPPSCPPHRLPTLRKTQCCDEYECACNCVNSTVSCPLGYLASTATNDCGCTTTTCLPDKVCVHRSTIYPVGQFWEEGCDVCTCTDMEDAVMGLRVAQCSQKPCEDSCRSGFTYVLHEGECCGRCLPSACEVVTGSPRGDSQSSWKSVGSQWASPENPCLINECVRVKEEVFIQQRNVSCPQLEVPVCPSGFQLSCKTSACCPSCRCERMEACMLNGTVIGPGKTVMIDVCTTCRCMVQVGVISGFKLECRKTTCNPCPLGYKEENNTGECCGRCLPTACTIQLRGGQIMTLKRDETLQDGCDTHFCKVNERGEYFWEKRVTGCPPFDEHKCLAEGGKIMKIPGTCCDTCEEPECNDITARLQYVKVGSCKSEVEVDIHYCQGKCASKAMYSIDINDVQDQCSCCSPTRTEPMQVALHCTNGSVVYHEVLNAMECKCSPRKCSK
Sequence of recombinant von Willebrand Factor A1 domain (amino acids 1277-1453 of human vWF) (human) (P04275 1277-1453 limits assumed, form in doubt): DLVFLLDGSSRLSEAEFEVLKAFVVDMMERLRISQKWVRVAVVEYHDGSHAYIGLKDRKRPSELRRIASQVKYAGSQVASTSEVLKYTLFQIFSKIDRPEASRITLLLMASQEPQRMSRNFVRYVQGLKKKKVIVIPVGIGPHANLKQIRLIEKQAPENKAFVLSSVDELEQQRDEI

dimeric polypeptide of SEQ ID NO: 37 (WT): GPIbα extracellular domain without gain- or loss-of-function mutation, murine Fc dimerization domain (Fc fusion)
Kd [1]: 1250 nM

B1: dimeric polypeptide of SEQ ID NO: 21: GPIbα extracellular domain with C65S and G233T, murine IgG1 Fc dimerization domain, 8-His tag (Fc fusion)
chain: HPICEVSKVASHLEVNCDKRNLTALPPDLPKDTTILHLSENLLYTFSLATLMPYTRLTQLNLDRSELTKLQVDGTLPVLGTLDLSHNQLQSLPLLGQTLPALTVLDVSFNRLTSLPLGALRGLGELQELYLKGNELKTLPPGLLTPTPKLEKLSLANNNLTELPAGLLNGLENLDTLLLQENSLYTIPKGFFGSHLLPFAFLHGNPWLCNCEILYFRRWLQDNAENVYVWKQTVDVKAMTSNVASVQCDNSDKFPVYKYPGKGCPTLGDEGDTDLYDYYPEEDTEGDKVRVPRDCGCKPCICTVPEVSSVFIFPPKPKDVLTITLTPKVTCVVVDISKDDPEVQFSWFVDDVEVHTAQTQPREEQFNSTFRSVSELPIMHQDWLNGKEFKCRVNSAAFPAPIEKTISKTKGRPKAPQVYTIPPPKEQMAKDKVSLTCMITDFFPEDITVEWQWNGQPAENYKNTQPIMDTDGSYFVYSKLNVQKSNWEAGNTFTCSVLHEGLHNHHTEKSLSHSPGIGHHHHHHHH
notes: On particles in fluorescence anisotropy, soluble in SPR, captured by anti-CD42b in ELISA; also called G233T mutant; G233T recombinant polypeptide
Kd [2]: 58 nM
Kd [1]: 67 nM and < 500 nM
binding result [3]: binds

B2: dimeric polypeptide of SEQ ID NO: 31: GPIbα extracellular domain with C65S and K237V, murine Fc dimerization domain (Fc fusion)
chain: HPICEVSKVASHLEVNCDKRNLTALPPDLPKDTTILHLSENLLYTFSLATLMPYTRLTQLNLDRSELTKLQVDGTLPVLGTLDLSHNQLQSLPLLGQTLPALTVLDVSFNRLTSLPLGALRGLGELQELYLKGNELKTLPPGLLTPTPKLEKLSLANNNLTELPAGLLNGLENLDTLLLQENSLYTIPKGFFGSHLLPFAFLHGNPWLCNCEILYFRRWLQDNAENVYVWKQGVDVVAMTSNVASVQCDNSDKFPVYKYPGKGCPTLGDEGDTDLYDYYPEEDTEGDKVRVPRDCGCKPCICTVPEVSSVFIFPPKPKDVLTITLTPKVTCVVVDISKDDPEVQFSWFVDDVEVHTAQTQPREEQFNSTFRSVSELPIMHQDWLNGKEFKCRVNSAAFPAPIEKTISKTKGRPKAPQVYTIPPPKEQMAKDKVSLTCMITDFFPEDITVEWQWNGQPAENYKNTQPIMDTDGSYFVYSKLNVQKSNWEAGNTFTCSVLHEGLHNHHTEKSLSHSPGIGHHHHHHHH
notes: also called K237V mutant
Kd [1]: < 500 nM and 300 nM
binding result [3]: binds

B3: dimeric polypeptide of SEQ ID NO: 30: GPIbα extracellular domain with C65S and D235V, murine Fc dimerization domain (Fc fusion)
chain: HPICEVSKVASHLEVNCDKRNLTALPPDLPKDTTILHLSENLLYTFSLATLMPYTRLTQLNLDRSELTKLQVDGTLPVLGTLDLSHNQLQSLPLLGQTLPALTVLDVSFNRLTSLPLGALRGLGELQELYLKGNELKTLPPGLLTPTPKLEKLSLANNNLTELPAGLLNGLENLDTLLLQENSLYTIPKGFFGSHLLPFAFLHGNPWLCNCEILYFRRWLQDNAENVYVWKQGVVVKAMTSNVASVQCDNSDKFPVYKYPGKGCPTLGDEGDTDLYDYYPEEDTEGDKVRVPRDCGCKPCICTVPEVSSVFIFPPKPKDVLTITLTPKVTCVVVDISKDDPEVQFSWFVDDVEVHTAQTQPREEQFNSTFRSVSELPIMHQDWLNGKEFKCRVNSAAFPAPIEKTISKTKGRPKAPQVYTIPPPKEQMAKDKVSLTCMITDFFPEDITVEWQWNGQPAENYKNTQPIMDTDGSYFVYSKLNVQKSNWEAGNTFTCSVLHEGLHNHHTEKSLSHSPGIGHHHHHHHH
notes: also called D235V mutant
Kd [1]: < 500 nM and 250 nM
binding result [3]: binds

Source: patent publication US20240279312A1 (Hoffmann-La Roche, published 2024)
